The RNAGym collection of RNA variant scans (doi:10.7554/elife.80360)

B1: Hairpin Ribozyme (parent)
chain: GUCCUCUUUCACGUGCGCGUGAAAGAGAGAAGUGAACCAGAGAAACACACGUUGUGGUAUAUUACCUGGUA

Variants of: B1
Test: self-cleavage, relative activity (ratio to wild type); higher = more cleavage; co-transcriptional

Going from A43G A49C to G40C C65U, the self-cleavage rises from 0.116 to 0.129.

Compared with A43C C46U, G42A C46U is lower in self-cleavage: 0.194 for the first, 0.0972 for the second.

First: G42U G51U
Second: G42U G51A
The self-cleavage of the first is higher: 0.345 for the first, 0.191 for the second.

First: G40C A61C
Second: G42C U62G
The self-cleavage of the first is higher: 0.107 for the first, 0.0896 for the second.

Going from G42C U62A to G42C U62C, the self-cleavage rises from 0.102 to 0.221.

Going from G40C A41C to A41G U55G, the self-cleavage rises from 0.108 to 0.138.

First: A43C U55G
Second: A41U C50G
The self-cleavage of the first is lower: 0.148 for the first, 0.756 for the second.

Going from A43C U67C to A43C U67A, the self-cleavage falls from 0.112 to 0.0731.

Going from G42U C50A to G42U C50G, the self-cleavage rises from 0.189 to 0.26.

First: G42U C46U
Second: A43G A44U
The self-cleavage of the first is lower: 0.205 for the first, 0.207 for the second.

Going from G42A G69A to G42C U70G, the self-cleavage rises from 0.112 to 0.145.

Going from A41C A64G to A43C A61U, the self-cleavage falls from 0.173 to 0.0908.

Compared with A43C A61C, A39U U70C is higher in self-cleavage: 0.218 for the first, 0.247 for the second.

Compared with G40C G54C, G42A C66U is higher in self-cleavage: 0.114 for the first, 0.147 for the second.

Compared with A41C U55C, A39U A49G is lower in self-cleavage: 0.484 for the first, 0.169 for the second.

First: G40A G51U
Second: G42U U67A
The self-cleavage of the first is higher: 0.404 for the first, 0.151 for the second.

Going from G40U G51C to A39U A44C, the self-cleavage rises from 0.104 to 0.127.

Compared with A39U A44U, G40A G68U is higher in self-cleavage: 0.102 for the first, 0.156 for the second.

Compared with G40A G68C, G40A G68A is lower in self-cleavage: 0.223 for the first, 0.211 for the second.

First: G40A C65G
Second: A39U C66U
The self-cleavage of the first is lower: 0.0639 for the first, 0.213 for the second.

Going from A41U A44C to A41U A44G, the self-cleavage rises from 0.115 to 0.153.

Compared with G42C G69U, G42C G69C is lower in self-cleavage: 0.157 for the first, 0.145 for the second.

Going from G42C G69A to G42A U62C, the self-cleavage rises from 0.0872 to 0.133.

First: G42A U62A
Second: G42A A61C
The self-cleavage of the first is higher: 0.151 for the first, 0.0818 for the second.

First: G42A A61U
Second: G40A A41U
The self-cleavage of the first is lower: 0.125 for the first, 0.608 for the second.

First: G40A A41G
Second: G40U C65A
The self-cleavage of the first is higher: 0.263 for the first, 0.158 for the second.

First: A43C C48G
Second: A41C U52G
The self-cleavage of the first is lower: 0.0498 for the first, 0.654 for the second.

Going from G40C C46U to G42A U60A, the self-cleavage falls from 0.116 to 0.0887.

Compared with A43C A49U, G40C G69C is higher in self-cleavage: 0.142 for the first, 0.169 for the second.

Going from A41C U67C to G40A G42U, the self-cleavage falls from 0.249 to 0.127.

First: G42A U52A
Second: G42U G57A
The self-cleavage of the first is higher: 0.221 for the first, 0.187 for the second.

Going from G42U G57U to G42U G57C, the self-cleavage falls from 0.187 to 0.0657.

Compared with A41U A49G, A41U A49C is lower in self-cleavage: 1.06 for the first, 0.238 for the second.

Going from A41C U58G to A41C U58C, the self-cleavage rises from 1.18 to 1.2.

First: A43C G68U
Second: A43C G68A
The self-cleavage of the first is lower: 0.0938 for the first, 0.176 for the second.

Compared with G42U C65G, A41G A44U is lower in self-cleavage: 0.209 for the first, 0.185 for the second.

Compared with A41G C48G, A41G C48U is higher in self-cleavage: 0.121 for the first, 0.162 for the second.

Compared with G42C A59U, G42C A59C is higher in self-cleavage: 0.156 for the first, 0.188 for the second.

First: A41G A59U
Second: G40A A64G
The self-cleavage of the first is higher: 0.138 for the first, 0.119 for the second.

Compared with G42C U63G, G42A G68U is lower in self-cleavage: 0.238 for the first, 0.144 for the second.

Going from A41G G54C to A41G G54A, the self-cleavage falls from 0.672 to 0.481.

First: G42U G54U
Second: G42U G54A
The self-cleavage of the first is lower: 0.191 for the first, 0.197 for the second.

Compared with G42U G54C, G42C C50A is higher in self-cleavage: 0.122 for the first, 0.212 for the second.

Compared with G42C C66A, G42C C66U is higher in self-cleavage: 0.103 for the first, 0.13 for the second.

Compared with G42C C66G, A41C U53G is higher in self-cleavage: 0.137 for the first, 0.758 for the second.

Going from A41U to A41G, the self-cleavage falls from 1.29 to 0.913.

First: A41C
Second: A39U U52A
The self-cleavage of the first is higher: 1.21 for the first, 0.406 for the second.

Going from A39U U52G to A41C A43G, the self-cleavage falls from 0.252 to 0.191.

Going from A43C C50A to A43C C50G, the self-cleavage falls from 0.162 to 0.143.

Compared with A43C U58A, G40U C48U is higher in self-cleavage: 0.174 for the first, 0.181 for the second.

Compared with G40U C48G, G42A U63G is higher in self-cleavage: 0.189 for the first, 0.193 for the second.

Going from A41G A71G to A41G A71U, the self-cleavage falls from 1.08 to 0.733.

First: A41G A71C
Second: A41U U62C
The self-cleavage of the first is higher: 1.34 for the first, 0.711 for the second.

Compared with A41U U62A, A41U U62G is higher in self-cleavage: 0.143 for the first, 0.202 for the second.

Going from G42C C48G to G42C C48U, the self-cleavage rises from 0.113 to 0.143.

Compared with A41C C50A, A43C U60G is lower in self-cleavage: 0.634 for the first, 0.0932 for the second.

Going from A43C U60A to A41C A61G, the self-cleavage rises from 0.162 to 0.304.

Compared with G42C A45G, G42C A45U is higher in self-cleavage: 0.095 for the first, 0.124 for the second.

First: A41U G51U
Second: G42C U58C
The self-cleavage of the first is higher: 1.5 for the first, 0.185 for the second.

Going from G42U U63G to G40U A47G, the self-cleavage rises from 0.168 to 0.18.

Going from G40U A47C to G40C A45C, the self-cleavage falls from 0.118 to 0.0755.

Going from G42C U60C to A39U A61U, the self-cleavage falls from 0.419 to 0.125.

First: A39U A61G
Second: A41U U53G
The self-cleavage of the first is lower: 0.0916 for the first, 1.16 for the second.

Compared with A41U A43U, A41U A61C is higher in self-cleavage: 0.187 for the first, 0.39 for the second.

Going from A41G U52G to G42C G56C, the self-cleavage falls from 1.15 to 0.159.

First: A43C A47C
Second: A43C A47U
The self-cleavage of the first is lower: 0.0231 for the first, 0.24 for the second.

First: A43C A44G
Second: G40U U67C
The self-cleavage of the first is lower: 0.0582 for the first, 0.0949 for the second.

Going from G40U U67G to G40C U53G, the self-cleavage falls from 0.151 to 0.103.

Compared with G40C U53C, G40A U70C is lower in self-cleavage: 0.168 for the first, 0.136 for the second.

Going from A41U G69U to A41U G69A, the self-cleavage rises from 0.348 to 0.685.

Going from A41U G69C to G40A A61U, the self-cleavage falls from 0.55 to 0.177.

Compared with G42A A49G, G40C U67C is lower in self-cleavage: 0.118 for the first, 0.098 for the second.

First: A41C A47U
Second: G42U A71U
The self-cleavage of the first is higher: 0.229 for the first, 0.217 for the second.

Going from G42U A71G to G40C C48A, the self-cleavage falls from 0.393 to 0.128.

First: G40C C48U
Second: G42C C65A
The self-cleavage of the first is lower: 0.135 for the first, 0.21 for the second.

Going from A39U A45U to A41G C50A, the self-cleavage rises from 0.142 to 0.255.

Compared with A41G G51C, A39U U67C is lower in self-cleavage: 0.677 for the first, 0.286 for the second.

First: A39U U67A
Second: A43C G54A
The self-cleavage of the first is higher: 0.73 for the first, 0.217 for the second.

Compared with A43C G54C, G42U C48A is higher in self-cleavage: 0.163 for the first, 0.215 for the second.

First: G40C U60G
Second: G40C U60A
The self-cleavage of the first is higher: 0.102 for the first, 0.0252 for the second.

First: G40A C48A
Second: G40A C48U
The self-cleavage of the first is higher: 0.246 for the first, 0.136 for the second.

First: G40A C48G
Second: G40U U53A
The self-cleavage of the first is higher: 0.135 for the first, 0.121 for the second.

First: A39U G56U
Second: A39U G56C
The self-cleavage of the first is higher: 0.189 for the first, 0.169 for the second.

With A41G A64G the self-cleavage was 0.326.
